Reference: JP2004000228A

Biological target: anti-Fas monoclonal antibody HFE7A produced by mouse-mouse hybridoma HFE7A (FERM BP-5828)
Experiment: peptide competition: 200 μg peptide preincubated with 0.25 μg HFE7A, then flow cytometry on WR19L12a cells

inhibition of the binding of HFE7A to WR19L12a cells [%] | Binder
50 | EINCTRTQNT [P100]
60 | KCRCKPNFFC [P110]
